# ± gives the uncertainty stated by the source.
# Assay: amyloid nucleation score (Sup35N fusion, yeast selection) (log enrichment); library NNK3; higher = more nucleation; inactive = no reads after selection
# How it was run: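 Three technical output replicates were used for random libraries. Psi-negative yeast expressing peptides of 20 random codons fused to Sup35N were induced with 100 μM copper sulfate for 24 hours and grown 7 days at 30°C on medium lacking adenine and uracil, and input and output plasmid inserts were Illumina-sequenced, excluding sequences with under 100 input reads. The nucleation score is the DiMSum log enrichment of output over input reads, centred on the mode score of non-aggregating sequences.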
row,Substance,amyloid nucleation score
1,AVCPSISTLSCGQ,-0.055 ± 0.82
2,CRRIYPFRP,-0.064 ± 0.66
3,VSNECVPWAPYGIGGF,inactive
4,WLHINGVLYIFSMAGSALSV,inactive
5,NCLVVTGRKVPSETHLVFLM,inactive
6,MSSGLTVSNVL,inactive
7,VTCSRSLRLSKMFPNKMFLI,inactive
8,GLKFMRNVSTFRYLRRKTDY,inactive
9,FYSIFN,inactive
10,FSNLYLVMTNCPSRDPPVYT,inactive
11,CFQDRQKLF,inactive
12,SYEAF,inactive
13,LSVVTSTHEDASSLNTTRWM,inactive
14,NRSRNMESVRDSLLSVVNRE,inactive
15,RLARADNILLGRNSVSSSVK,inactive
16,PCRICINCCRRCIILLLF,inactive
17,SCMVNMSPVGWDSAGGEQGV,inactive
18,DCESQQLSSSMWDTPQRWLT,inactive
19,AYRVVQTGDLHGRCAWIVNV,0.088 ± 0.88
20,WGSEFIDTKFA,inactive
21,VMVAMTFNWHDALILWDGMV,inactive
22,PDSKWVFRNAALMTETCIGR,inactive
23,TKDIMHTSSLVRWTHREAWC,inactive

row,Substance,amyloid nucleation score
1,KCCTGERYSLIGFLHFCGEM,0.891 ± 0.15
2,IAKLVKFEEFRMQDCYIDWL,inactive
3,CSGDD,inactive
4,TIIMR,inactive
5,VHKYMGEVLHQYFPLMLYLF,0.807 ± 0.1
6,ACYFWS,inactive
7,TYYTSRYL,inactive
8,WMYKTWHRI,inactive
9,SLKSPLRCFLILHSPALCLG,inactive
10,ATTVNGFIISHRVYNAGSWY,1.28 ± 0.1
11,YHLDIKNFHTLCWGPYFTSM,0.789 ± 0.25
12,GACYTFAA,inactive
13,MHTFSDQSISVEQRTCLQVR,inactive
14,SIKSLTIDSCLTS,0.809 ± 0.2
15,NSRNLR,inactive
16,VVWNMYKFKACWYRDVTPLF,inactive
17,RHTPDSLQYFLVFKVSYGFL,inactive
18,LMYRYVTLNAFRESISYISS,inactive
19,VNGFFLVACTCSYFNNRSSW,1.57 ± 0.12
20,VKNIWIDVTMGDQLFIPNFY,2.36 ± 0.051
21,WCFGYLHMNIV,inactive
22,WVLLRWAGY,-0.611 ± 2.4
23,AELVNIF,inactive

row,Substance,amyloid nucleation score
1,VQVIRFFWIMGLTGWTRELP,inactive
2,RRLPSELYMSYHYHFFFKSG,inactive
3,STTGWSMYYWSIRADREVTY,inactive
4,IALLHQKHIG,inactive
5,MVWWNPNSWNVMLSLIWCLV,0.752 ± 0.14
6,VSCSPMYEEYRHGNLAEYNE,-0.559 ± 0.94
7,VCSVFLLLCANRLRVGGNYI,inactive
8,QGNWHYWCKDVRKLSLPKEL,inactive
9,FMYILWRVSKKLFIALMWFR,inactive
10,RTIYTLPSCEIEGDLWHLSG,inactive
11,TLLTMTDFAIKFSHKQPGYV,inactive
12,ISLSR,inactive
13,MYWWRFVGLQSIYSGQLCKR,inactive
14,WSKVSHPYSALYSIMDRYT,inactive
15,KGLSLGCIFKGLEFREQGVE,inactive
16,ASANLRILYLWTIGNVLNAY,inactive
17,LNMHFENTIRGVPYTLVSGR,inactive
18,HLRWMTEKGPVRNVCVRGCH,inactive
19,VAGLSRHIRIFHYYHSRARF,inactive
20,FRMQGLKVREA,inactive
21,VFAISV,inactive
22,FMNKLGDFNLP,inactive
23,IGNAFFETRLVFGRH,1.86 ± 0.081

row,Substance,amyloid nucleation score
1,VVCFLYIRSYNQGLCRSYFR,2.29 ± 0.091
2,SLFIYGHYEHKHSGSLKFFA,inactive
3,SRWVLSWSIVITIHLDMRSL,inactive
4,KTDTCRNIL,inactive
5,DTYFTVCSLWGPV,0.999 ± 0.12
6,LDAYDSLLFL,inactive
7,LGKHRANHCMAGQDVAYKWV,-0.831 ± 1.1
8,DYMRFTYRIMNCLSDCYITN,inactive
9,LNKCLAGFIHMEVWILRMKL,inactive
10,AYLLSIANCFSAVYLHPSDS,0.216 ± 0.56
11,SMADPRFQESYEDRETYSIS,inactive
12,KSREWLLSYFCYGW,inactive
13,YQYCSISKHVFEWYGTSWMG,inactive
14,RQGCKVCRWLRSKSLLLRRM,inactive
15,ESMAFLRSSSLHKFVWTMYR,inactive
16,CALYFVWAWWERRRKMYYA,inactive
17,SPFPLEPFS,inactive
18,ALDIDWFYWYRHQSSPSFFY,inactive
19,KALWCGYE,inactive
20,LSFPYMMTIFCATRFTDPLM,inactive
21,VRDRCRIHCAYNRSKGTVSN,inactive
22,IMYFMLMLGSSRMSFTKLMG,inactive
23,RHSNDCMNFEVIILIDSCLE,inactive

row,Substance,amyloid nucleation score
1,HVVFLSSMVATTLLWFG,1.26 ± 0.12
2,FSLFFLCIFFDNRTKFMCLA,inactive
3,MKQSDLGLKGRCDNCQFGRS,0.092 ± 0.96
4,CDMDVFLSNMPSSVVNRSG,inactive
5,FMTVQLLH,1.85 ± 0.1
6,AEWYIRITGDICLDPYLCKN,inactive
7,YRSKNFMIQRWTRVVLRAWM,inactive
8,RLGCCGVSSEWVCRKYLLRG,inactive
9,VFVDLPRARG,0.499 ± 0.32
10,NIWRMYEIRSVSGKKLRVDI,inactive
11,RGMWSFHGYWRTGKYMATGG,inactive
12,HSITNITCSFDLAFLRMHVL,0.871 ± 0.11
13,AIYAYTFAKRPSCEQATRVS,inactive
14,YCFSWNHR,0.116 ± 0.66
15,NLDRLYI,inactive
16,KGITYLNVRFKNRCPMVFGG,inactive
17,TVLLYLNDMVNNNFGFEGSF,0.647 ± 0.34
18,TRHIGVGRY,inactive
19,VSMRSTYTFG,0.597 ± 0.51
20,CLIYTTVFHSAG,0.708 ± 0.13
21,KIVFPLNLG,inactive
22,IDAYPVWELITLFLFGLMLY,inactive
23,TYEST,inactive

row,Substance,amyloid nucleation score
1,IYIGQFSLVVCVIIDIDI,1.75 ± 0.11
2,YIHIY,inactive
3,YGAFWGYSAGAVKLNENFSV,inactive
4,CPGDPVESRCFPVLVNLRRG,inactive
5,VHVYCNWKFRDEIRANSTRR,inactive
6,YIWLKGNIRRSQWLLSLPFM,inactive
7,LFLLFFSAHGQYIRCAIIVR,inactive
8,GKSLMK,inactive
9,IDMFGSWFSCILGEKNQLGS,inactive
10,LQFPPNLSMLCKVTQPSNNW,inactive
11,ALGTSEGRLQLSYDNHGVVL,inactive
12,GFAMVLSWLKSGFPISRDLR,inactive
13,GRAPYMWC,-0.955 ± 2.4
14,LDFDVGI,inactive
15,NISSVVLGGGLRVGARRI,inactive
16,RCSLLRNIG,inactive
17,SRITYEGQSRGCTLGNGLKR,inactive
18,NQVRVSKSVNRAIDASPEWD,inactive
19,SIIDKE,-0.605 ± 0.98
20,YSSSC,inactive
21,NIRICWG,0.795 ± 0.27
22,GNSNTMSVLRCFLNPFPLVW,inactive
23,TLNIRCRRFVFVWDATNSV,2.88 ± 0.064

row,Substance,amyloid nucleation score
1,TSNTGVSVSRFTFSVDRSVG,inactive
2,KNCIGRFW,inactive
3,DSYCYVWYKYSNVNVGD,inactive
4,TDFTYSLTFVYKLGEKTVDI,inactive
5,SGSRLGHCSSLTMKSSLSVD,1.06 ± 0.17
6,NRMLNYIFDTTS,inactive
7,IPTIVPLAQLRVSVTSVWNL,inactive
8,RNHGGNDSDILRRSESMSDR,inactive
9,LLDYRPKTGNCRVQIRLCVV,inactive
10,RLTGEMRRCVVHGKRSHRVF,inactive
11,QYANVGSCVCDRIIRCFYGW,inactive
12,TEYCIYFLEV,inactive
13,NYMTVRNGLIISIAPRRLRD,1.83 ± 0.085
14,INQGLTWMLDRPSKFAFVAV,inactive
15,VIVARFLFMGTTFHVPDVRP,1.97 ± 0.075
16,TGIYAF,inactive
17,WIPAMVYFEHNTS,inactive
18,DHAIM,1.46 ± 0.14
19,TLGDGRPLCLREEWEGPVTC,inactive
20,MMMCG,inactive
21,TLALSKSMMYQMVINPAIY,inactive
22,IVQLVIFLSRYDVLELCMHK,0.07 ± 0.47
23,CIAMKMWKNIRRWWSGRVAG,inactive
